According to US20180312587A1 (ADURO BIOTECH HOLDINGS EUROPE B V, published 2018):
Each block holds one binder with its values, some of them ahead of it.

Experiments:
[1] = target: T1, human SIRPα variant 2 (human, UniProt P78324 31-504); experiment: CELISA, CHO-K1 transfectants, domain exchange study
T1 construct: full length ORF on transfected CHO-K1 cells; also called hSIRPαV2; SIRPαV2
From the text: (§1) Based on the fold of SIRPα/β1/γ, the extracellular region can be subdivided into three separate domains: the Ig-like (immunoglobulin-like) V-type (IgV), Ig-like C1-type (IgC1), and Ig-like C2-type (IgC2) domain. The IgV domain is also known as the ligand-binding N-terminal domain of SIRPα and SIRPγ (which binds to CD47). The human SIRPβ1/γ mutants were designed based on the full length hSIRPβ1 sequence (SEQ ID NO: 38) and each individual Ig-like domain was substituted for the equivalent domain of human SIRPγ (SEQ ID NO: 40). […] Binding of hSIRPα.40A to the exchange mutants was tested using CELISA. To this end, CHO-K1 cells were transiently transfected, using Lipofectamine 2000, with the pCI-neo vectors encoding hSIRPαV1, hSIRPαV2, hSIRPβ1, hSIRP-VγC1βC2β, hSIRP-VβC1γC2β, and hSIRP-VβC1βC2γ, respectively. The transfected cells were cultured at 37° C., 5% CO₂ and 95% humidity in medium (DMEM-F12 (Gibco) with 5% New Born Calf serum (Biowest) and Pen/Strep (Gibco)) until confluent. Subsequently, cells were trypsinized and seeded in 96-well flat-bottom tissue culture plates and cultured at 37° C., 5% CO₂ and 95% humidity in culture medium until confluent. Then, culture medium was removed and cells were incubated for 1 hour at 37° C., 5% CO₂ and 95% humidity with hSIRPα.40A, hSIRPα.50A, and anti-hSIRPα clone SE5A5 antibodies. Next, cells were washed with PBS-T and incubated for 1 hour at 37° C., 5% CO₂ and 95% humidity with goat-anti-mouse IgG-HRP conjugate (Southern Biotech). After that, cells were washed three times with PBS-T and anti-hSIRPα immunoreactivity was visualized with TMB Stabilized Chromogen (Invitrogen). Reactions were stopped with 0.5 M H₂SO₄ and absorbances were read at 450 and 610 nm.

[2] = target: T2, human SIRPα variant 1 (human, UniProt P78324 31-504); experiment: as above
T2 construct: full length ORF on transfected CHO-K1 or HEK293 cells; entry includes the signal peptide; also called hSIRPαV1; SIRPαV1
T2 sequence (P78324 31-504 limits assumed, change not shown): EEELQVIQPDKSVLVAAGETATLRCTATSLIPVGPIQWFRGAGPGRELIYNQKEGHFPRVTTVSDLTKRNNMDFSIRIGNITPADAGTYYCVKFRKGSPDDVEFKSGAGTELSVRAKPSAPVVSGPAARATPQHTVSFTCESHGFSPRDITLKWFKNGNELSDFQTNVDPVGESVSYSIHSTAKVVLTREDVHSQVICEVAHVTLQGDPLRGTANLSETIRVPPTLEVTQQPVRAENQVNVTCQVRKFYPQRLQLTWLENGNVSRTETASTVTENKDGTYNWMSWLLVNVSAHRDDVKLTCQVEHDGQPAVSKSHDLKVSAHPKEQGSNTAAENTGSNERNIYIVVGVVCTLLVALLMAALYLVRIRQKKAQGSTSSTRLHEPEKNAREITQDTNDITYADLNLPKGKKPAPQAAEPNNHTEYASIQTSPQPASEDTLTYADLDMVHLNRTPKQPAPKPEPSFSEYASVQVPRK
From the text: as §1

[3] = target: T1, human SIRPα variant 2; experiment: CELISA, CHO-K1 transfectants
Procedure: (§2) Reactivity was confirmed using CHO-K1 cells (ATCC CCL-61) that had been transiently transfected, using Lipofectamine 2000, with cDNA encoding the full length open reading frame of hSIRPαV1, hSIRPαV2, hSIRPβ1, hSIRPβL, and hSIRPγ subcloned into the pCI-neo vector (Promega, Madison, Wis.). CHO-K1.hSIRPαV1, CHO-K1.hSIRPαV2, CHO-K1.hSIRPβ1, CHO-K1.hSIRPβL, and CHO-K1.hSIRPγ cells were seeded in culture medium (DMEM-F12 (Gibco) supplemented with 5% New Born Calf Serum (BioWest) and Pen/Strep (Gibco)) in 96-well flat-bottom tissue culture plates and incubated at 37° C., 5% CO₂ and 95% humidity for 24 hours. Subsequently, culture medium was removed and cells were incubated for 1 hour at 37° C., 5% CO₂ and 95% humidity with purified hSIRPα antibodies (used at 10 μg/mL and dilutions thereof). Next, cells were washed with PBS-T and incubated for 1 hour at 37° C., 5% CO₂ and 95% humidity with goat-anti-mouse IgG-HRP (Southern Biotech). Subsequently, cells were washed three times with PBS-T and immunoreactivity against hSIRPαV1, hSIRPαV2, hSIRPβ1, hSIRPβL, and hSIRPγ was visualized with TMB Stabilized Chromogen (Invitrogen). Reactions were stopped with 0.5 M H₂SO₄ and absorbances were read at 450 and 610 nm.
(§3) The KWAR23 antibody cross-reacts with all members of the SIRP receptor family tested: it binds to hSIRPαV1, hSIRPαV2, hSIRPβ1, hSIRPβL, and hSIRPγ.

[4] = target: T3, hSIRPβ1 transcript variant 3/hSIRPβL (human, UniProt Q5TFQ8 30-398); experiment: CELISA, CHO-K1 transfectants
T3 construct: also called human SIRPβL
T3 sequence (Q5TFQ8 30-398 limits assumed, change not shown): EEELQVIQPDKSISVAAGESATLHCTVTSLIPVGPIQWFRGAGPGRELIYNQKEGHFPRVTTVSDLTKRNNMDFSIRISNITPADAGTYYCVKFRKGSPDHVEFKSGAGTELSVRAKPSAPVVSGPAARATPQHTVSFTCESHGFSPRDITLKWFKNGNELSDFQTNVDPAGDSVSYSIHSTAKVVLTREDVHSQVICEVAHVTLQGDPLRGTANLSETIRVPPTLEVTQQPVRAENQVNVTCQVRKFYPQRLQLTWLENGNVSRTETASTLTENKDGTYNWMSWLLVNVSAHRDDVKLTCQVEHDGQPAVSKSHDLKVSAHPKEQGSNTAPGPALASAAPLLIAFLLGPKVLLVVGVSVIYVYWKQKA
Procedure: as §2, §3

[5] = target: T4, human SIRPγ (human, UniProt Q9P1W8 29-387); experiment: CELISA, CHO-K1 transfectants
T4 construct: on transfected CHO-K1 cells; also called hSIRPγ
T4 sequence (Q9P1W8 29-387 limits assumed): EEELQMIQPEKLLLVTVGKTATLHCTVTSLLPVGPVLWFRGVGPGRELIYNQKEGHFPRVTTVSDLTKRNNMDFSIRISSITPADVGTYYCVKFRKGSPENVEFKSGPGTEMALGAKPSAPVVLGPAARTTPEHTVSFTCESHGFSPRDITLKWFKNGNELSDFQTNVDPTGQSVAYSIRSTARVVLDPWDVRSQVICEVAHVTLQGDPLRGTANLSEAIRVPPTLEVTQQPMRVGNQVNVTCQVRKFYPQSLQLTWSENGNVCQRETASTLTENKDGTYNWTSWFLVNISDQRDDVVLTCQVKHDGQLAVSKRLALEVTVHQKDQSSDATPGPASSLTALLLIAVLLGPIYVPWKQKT
Procedure: as §2, §3

[6] = target: T2, human SIRPα variant 1; experiment: CELISA, CHO-K1 transfectants
Procedure: as §2, §3

T1 sequence (P78324 other isoform, or with tags, fused parts or gaps mutant limits assumed): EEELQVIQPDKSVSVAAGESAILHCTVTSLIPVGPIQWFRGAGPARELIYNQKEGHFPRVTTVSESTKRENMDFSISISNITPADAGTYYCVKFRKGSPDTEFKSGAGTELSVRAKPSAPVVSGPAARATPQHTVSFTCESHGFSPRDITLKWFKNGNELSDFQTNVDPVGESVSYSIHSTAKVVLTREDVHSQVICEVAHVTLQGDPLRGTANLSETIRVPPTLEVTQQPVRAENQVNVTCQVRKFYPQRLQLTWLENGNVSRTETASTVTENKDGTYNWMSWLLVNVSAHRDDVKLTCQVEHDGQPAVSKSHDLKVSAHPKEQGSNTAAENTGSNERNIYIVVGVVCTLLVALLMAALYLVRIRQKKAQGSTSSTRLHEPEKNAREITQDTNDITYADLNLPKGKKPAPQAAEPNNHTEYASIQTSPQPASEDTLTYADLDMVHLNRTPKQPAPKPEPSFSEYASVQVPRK

- EC50 [1]: 0.101 nM
- EC50 [2]: 0.133 nM
B1: hSIRPα.40A (antibody, mouse IgG1, kappa, V domains shown)
VH: EVQFQQSGTVLARPGTSVKMSCKASGSTFTSYWMHWVKQGPGQGLQWIGAIYPVNNDTTYNQKFKGKAELTVVTSTSTAYMEVSSLTNEDSAVYYCTRSFYYSLDAAWFVYWGQGTLVTVSA
VL: DIQMTQSPSSLSASLGERVSLTCRASQDIGSRLNWLQQEPDGTIKRLIYATSSLDSGVPKRFSGSRSGSDYSLTISGLESEDFVDYYCLQYASSPFTFGGGTKLEINR
notes: mouse antibody, full chains without signal peptide; also called mouse hSIRPα.40A

- EC50 [3]: 0.062 nM
- EC50 [4]: 0.097 nM
- EC50 [5]: 0.043 nM
- EC50 [6]: 0.067 nM
B2: KWAR23 (antibody, V domains shown)
VH: EVQLQQSGAELVKPGASVKLSCTASGFNIKDYYIHWVQQRTEQGLEWIGRIDPEDGETKYAPKFQDKATITADTSSNTAYLHLSSLTSEDTAVYYCARWGAYWGQGTLVTVSS
VL: QIVLTQSPAIMSASPGEKVTLTCSASSSVSSSYLYWYQQKPGSSPKLWIYSTSNLASGVPARFSGSGSGTSYSLTISSMEAEDAASYFCHQWSSYPRTFGAGTKLELK

- EC50 [1]: 0.821 nM
- EC50 [2]: 0.968 nM
- EC50 [3]: 1.63 nM
- EC50 [4]: 0.639 nM
- EC50 [5]: 1.48 nM
- EC50 [6]: 1.63 nM
B3: hSIRPα.50A (antibody, V domains shown)
VH: QVQLQQSGPELVKPGASVRISCKASGFTFTNYYIHWVKQRPGQGLEWIGWIYPGNVNTKYNEKFKAKATLTADKSSTTAYMQLSSLASEDSAVYFCARPTIIATDFDVWGAGTTVTVSS
VL: DIVMTQSHKFMSTSVGDRVNITCKASQGVGTAVGWYQQKPGQSPRLLIYWASTRHTGVPDRFTGSGSGTDFSLAISNVQSEDLADYFCQQYSTYPFTFGGGTNLEIK
notes: light chain constant domain not tied; also called mouse hSIRPα.50A; hSIRPα.50A.mIgG1
